For two substances, stoichiometry N and acceleration of OCP1’s recovery from photoconversion (20 °C, equimolar ratio of OCP1 to FRPL), compared to OCP1 alone results are on record in article PMC10172135.

Usually stoichiometry N stands for the number of molecules, sites or subunits per partner or assembly.

In assay [1] the target is FRP-like protein (FRPL) from Pseudomonas borbori (Pseudomonas borbori). Kind of assay: native MS; 4 µM (monomer) in 200 mM ammonium acetate pH 6.8, Q Exactive, positive ion mode.
For assay [2], the target named is orange carotenoid protein OCP1 from Synechocystis sp. PCC 6803 (Synechocystis sp. PCC 6803).

On to “FRP-like protein (FRPL) from Pseudomonas borbori (natural protein)”, for which the stoichiometry N in assay [1] was 2. In the case of “FRPL from a delta-proteobacterium of the Desulfobacteraceae family (natural protein)”, the acceleration of OCP1’s recovery from photoconversion (20 °C, equimolar ratio of OCP1 to FRPL), compared to OCP1 alone in assay [2] turned out to be 93%.
